Numbered stars: 1 amine (or outer) side, 2 acyl side, 3 side chain; on linkers, the order of the positions; unused ones are H or OH. Side chains are listed from the residue outwards. Ends that are not written are not given here. * marks the point of attachment. C20 diacid = O=C(O)CCCCCCCCCCCCCCCCCCC(=O)*; C18 diacid = O=C(O)CCCCCCCCCCCCCCCCC(=O)*; C16 diacid = O=C(O)CCCCCCCCCCCCCCC(=O)*; γGlu = O=C(O)[C@H](CCC(=O)[*:2])N[*:1]; C14 diacid = O=C(O)CCCCCCCCCCCCC(=O)*; AEEA = NCCOCCOCC(=O)O
Experiments:
[1] = biological target: rat amylin receptor (rat calcitonin receptor with rat RAMP 3) (rat) (UniProt P32214); assay: SPA competition vs 125I-rat amylin, membranes with rat CTR + rat RAMP3 (Assay VI)
[2] = biological target: rat calcitonin receptor (rat) (UniProt P32214); assay: SPA competition vs 125I-calcitonin, membranes with rat CTR (Assay VIII)

Row | IC50 [1] [nM] | IC50 [2] [nM] | Binder
1 | 0.455 | 0.044 | ASELSTAALGRLSAELHK([γGlu-C20 diacid])LATLPRTETGSGSP-NH2 (N-terminus assumed; SMILES CC(C)C[C@H](NC(=O)[C@H](C)NC(=O)[C@H](C)NC(=O)[C@@H](NC(=O)[C@H](CO)NC(=O)[C@H](CC(C)C)NC(=O)[C@H](CCC(=O)O)NC(=O)[C@H](CO)NC(=O)[C@H](C)N)[C@@H](C)O)C(=O)NCC(=O)N[C@@H](CCCNC(=N)N)C(=O)N[C@@H](CC(C)C)C(=O)N[C@@H](CO)C(=O)N[C@@H](C)C(=O)N[C@@H](CCC(=O)O)C(=O)N[C@@H](CC(C)C)C(=O)N[C@@H](Cc1c[nH]cn1)C(=O)N[C@@H](CCCCNC(=O)CC[C@H](NC(=O)CCCCCCCCCCCCCCCCCCC(=O)O)C(=O)O)C(=O)N[C@@H](CC(C)C)C(=O)N[C@@H](C)C(=O)N[C@H](C(=O)N[C@@H](CC(C)C)C(=O)N1CCC[C@H]1C(=O)N[C@@H](CCCNC(=N)N)C(=O)N[C@H](C(=O)N[C@@H](CCC(=O)O)C(=O)N[C@H](C(=O)NCC(=O)N[C@@H](CO)C(=O)NCC(=O)N[C@@H](CO)C(=O)N1CCC[C@H]1C(N)=O)[C@@H](C)O)[C@@H](C)O)[C@@H](C)O) [[des1, 19K(C20 diacid-gGlu), 30S, 31G]mimylin]
2 | 0.053 | 0.016 | {C20 diacid-γGlu}-ASGLSTAVLGRLSQELHELQTYPRTETGSQTY-NH2 (SMILES CC(C)C[C@H](NC(=O)CNC(=O)[C@H](CO)NC(=O)[C@H](C)NC(=O)CC[C@H](NC(=O)CCCCCCCCCCCCCCCCCCC(=O)O)C(=O)O)C(=O)N[C@@H](CO)C(=O)N[C@H](C(=O)N[C@@H](C)C(=O)N[C@H](C(=O)N[C@@H](CC(C)C)C(=O)NCC(=O)N[C@@H](CCCNC(=N)N)C(=O)N[C@@H](CC(C)C)C(=O)N[C@@H](CO)C(=O)N[C@@H](CCC(N)=O)C(=O)N[C@@H](CCC(=O)O)C(=O)N[C@@H](CC(C)C)C(=O)N[C@@H](Cc1c[nH]cn1)C(=O)N[C@@H](CCC(=O)O)C(=O)N[C@@H](CC(C)C)C(=O)N[C@@H](CCC(N)=O)C(=O)N[C@H](C(=O)N[C@@H](Cc1ccc(O)cc1)C(=O)N1CCC[C@H]1C(=O)N[C@@H](CCCNC(=N)N)C(=O)N[C@H](C(=O)N[C@@H](CCC(=O)O)C(=O)N[C@H](C(=O)NCC(=O)N[C@@H](CO)C(=O)N[C@@H](CCC(N)=O)C(=O)N[C@H](C(=O)N[C@@H](Cc1ccc(O)cc1)C(N)=O)[C@@H](C)O)[C@@H](C)O)[C@@H](C)O)[C@@H](C)O)C(C)C)[C@@H](C)O) [[N-terminal(C20 diacid-gGlu), des1, 4G, 9V, 15Q, 21Q, 23Y, 30S, 31Q, 32T, 33Y]mimylin]
3 | 0.146 | 0.044 | {C20 diacid-γGlu-AEEA}-ASELSTAALGRLSAELHELATLPRTETGSGSP-NH2 [[N-terminal(C20 diacid-gGlu-OEG), des1, 30S, 31G]mimylin]
4 | 1.3 | 0.065 | ASELSTAALGRLSAK([γGlu-C20 diacid])LHELATLPRTETGSGSP-NH2 (N-terminus assumed; SMILES CC(C)C[C@H](NC(=O)[C@H](C)NC(=O)[C@H](C)NC(=O)[C@@H](NC(=O)[C@H](CO)NC(=O)[C@H](CC(C)C)NC(=O)[C@H](CCC(=O)O)NC(=O)[C@H](CO)NC(=O)[C@H](C)N)[C@@H](C)O)C(=O)NCC(=O)N[C@@H](CCCNC(=N)N)C(=O)N[C@@H](CC(C)C)C(=O)N[C@@H](CO)C(=O)N[C@@H](C)C(=O)N[C@@H](CCCCNC(=O)CC[C@H](NC(=O)CCCCCCCCCCCCCCCCCCC(=O)O)C(=O)O)C(=O)N[C@@H](CC(C)C)C(=O)N[C@@H](Cc1c[nH]cn1)C(=O)N[C@@H](CCC(=O)O)C(=O)N[C@@H](CC(C)C)C(=O)N[C@@H](C)C(=O)N[C@H](C(=O)N[C@@H](CC(C)C)C(=O)N1CCC[C@H]1C(=O)N[C@@H](CCCNC(=N)N)C(=O)N[C@H](C(=O)N[C@@H](CCC(=O)O)C(=O)N[C@H](C(=O)NCC(=O)N[C@@H](CO)C(=O)NCC(=O)N[C@@H](CO)C(=O)N1CCC[C@H]1C(N)=O)[C@@H](C)O)[C@@H](C)O)[C@@H](C)O) [[des1, 16K(C20 diacid-gGlu), 30S, 31G]mimylin]
5 | 0.078 | 0.012 | {C20 diacid-γGlu}-ASGLSTAALGRLSQELHELQTYPRTETGSQTY-NH2 (SMILES CC(C)C[C@H](NC(=O)CNC(=O)[C@H](CO)NC(=O)[C@H](C)NC(=O)CC[C@H](NC(=O)CCCCCCCCCCCCCCCCCCC(=O)O)C(=O)O)C(=O)N[C@@H](CO)C(=O)N[C@H](C(=O)N[C@@H](C)C(=O)N[C@@H](C)C(=O)N[C@@H](CC(C)C)C(=O)NCC(=O)N[C@@H](CCCNC(=N)N)C(=O)N[C@@H](CC(C)C)C(=O)N[C@@H](CO)C(=O)N[C@@H](CCC(N)=O)C(=O)N[C@@H](CCC(=O)O)C(=O)N[C@@H](CC(C)C)C(=O)N[C@@H](Cc1c[nH]cn1)C(=O)N[C@@H](CCC(=O)O)C(=O)N[C@@H](CC(C)C)C(=O)N[C@@H](CCC(N)=O)C(=O)N[C@H](C(=O)N[C@@H](Cc1ccc(O)cc1)C(=O)N1CCC[C@H]1C(=O)N[C@@H](CCCNC(=N)N)C(=O)N[C@H](C(=O)N[C@@H](CCC(=O)O)C(=O)N[C@H](C(=O)NCC(=O)N[C@@H](CO)C(=O)N[C@@H](CCC(N)=O)C(=O)N[C@H](C(=O)N[C@@H](Cc1ccc(O)cc1)C(N)=O)[C@@H](C)O)[C@@H](C)O)[C@@H](C)O)[C@@H](C)O)[C@@H](C)O) [[N-terminal(C20 diacid-gGlu), des1, 4G, 15Q, 21Q, 23Y, 30S, 31Q, 32T, 33Y]mimylin]
6 | 0.045 | 0.069 | {C20 diacid-γGlu}-ASELSTATLGRLSAELHELSTYPRTETGSGSY-NH2 (SMILES CC(C)C[C@H](NC(=O)[C@H](CCCNC(=N)N)NC(=O)CNC(=O)[C@H](CC(C)C)NC(=O)[C@@H](NC(=O)[C@H](C)NC(=O)[C@@H](NC(=O)[C@H](CO)NC(=O)[C@H](CC(C)C)NC(=O)[C@H](CCC(=O)O)NC(=O)[C@H](CO)NC(=O)[C@H](C)NC(=O)CC[C@H](NC(=O)CCCCCCCCCCCCCCCCCCC(=O)O)C(=O)O)[C@@H](C)O)[C@@H](C)O)C(=O)N[C@@H](CO)C(=O)N[C@@H](C)C(=O)N[C@@H](CCC(=O)O)C(=O)N[C@@H](CC(C)C)C(=O)N[C@@H](Cc1c[nH]cn1)C(=O)N[C@@H](CCC(=O)O)C(=O)N[C@@H](CC(C)C)C(=O)N[C@@H](CO)C(=O)N[C@H](C(=O)N[C@@H](Cc1ccc(O)cc1)C(=O)N1CCC[C@H]1C(=O)N[C@@H](CCCNC(=N)N)C(=O)N[C@H](C(=O)N[C@@H](CCC(=O)O)C(=O)N[C@H](C(=O)NCC(=O)N[C@@H](CO)C(=O)NCC(=O)N[C@@H](CO)C(=O)N[C@@H](Cc1ccc(O)cc1)C(N)=O)[C@@H](C)O)[C@@H](C)O)[C@@H](C)O) [[N-terminal(C20 diacid-gGlu), des1, 9T, 21S, 23Y, 30S, 31G, 33Y]mimylin]

More lines, now with the values behind:

Row | Binder | IC50 [1] [nM] | IC50 [2] [nM]
7 | {C16 diacid-γGlu}-ASELSTAALGRLSAELHELATLPRTETGSGSP-NH2 [[N-terminal(C16 diacid-gGlu), des1, 30S, 31G]mimylin] | 0.022 | 0.013
8 | {C20 diacid-γGlu}-ASGLSTAVLGKLSQELHELQTYPPTETGSGTY-NH2 (SMILES CC(C)C[C@H](NC(=O)CNC(=O)[C@H](CO)NC(=O)[C@H](C)NC(=O)CC[C@H](NC(=O)CCCCCCCCCCCCCCCCCCC(=O)O)C(=O)O)C(=O)N[C@@H](CO)C(=O)N[C@H](C(=O)N[C@@H](C)C(=O)N[C@H](C(=O)N[C@@H](CC(C)C)C(=O)NCC(=O)N[C@@H](CCCCN)C(=O)N[C@@H](CC(C)C)C(=O)N[C@@H](CO)C(=O)N[C@@H](CCC(N)=O)C(=O)N[C@@H](CCC(=O)O)C(=O)N[C@@H](CC(C)C)C(=O)N[C@@H](Cc1c[nH]cn1)C(=O)N[C@@H](CCC(=O)O)C(=O)N[C@@H](CC(C)C)C(=O)N[C@@H](CCC(N)=O)C(=O)N[C@H](C(=O)N[C@@H](Cc1ccc(O)cc1)C(=O)N1CCC[C@H]1C(=O)N1CCC[C@H]1C(=O)N[C@H](C(=O)N[C@@H](CCC(=O)O)C(=O)N[C@H](C(=O)NCC(=O)N[C@@H](CO)C(=O)NCC(=O)N[C@H](C(=O)N[C@@H](Cc1ccc(O)cc1)C(N)=O)[C@@H](C)O)[C@@H](C)O)[C@@H](C)O)[C@@H](C)O)C(C)C)[C@@H](C)O) [[N-terminal(C20 diacid-gGlu), des1, 4G, 9V, 12K, 15Q, 21Q, 23Y, 25P, 30S, 31G, 32T, 33Y]mimylin] | 0.385 | 0.246
9 | {C18 diacid}-ASELSTAALGRLSAELHELATLPRTETGSGSP-NH2 [[N-terminal(C18 diacid), des1, 30S, 31G]mimylin] | 0.063 | 0.013
10 | {C18 diacid-γGlu}-ASGLSTAALGRLSQELHELQTYPRTETGSGTY-NH2 (SMILES CC(C)C[C@H](NC(=O)CNC(=O)[C@H](CO)NC(=O)[C@H](C)NC(=O)CC[C@H](NC(=O)CCCCCCCCCCCCCCCCC(=O)O)C(=O)O)C(=O)N[C@@H](CO)C(=O)N[C@H](C(=O)N[C@@H](C)C(=O)N[C@@H](C)C(=O)N[C@@H](CC(C)C)C(=O)NCC(=O)N[C@@H](CCCNC(=N)N)C(=O)N[C@@H](CC(C)C)C(=O)N[C@@H](CO)C(=O)N[C@@H](CCC(N)=O)C(=O)N[C@@H](CCC(=O)O)C(=O)N[C@@H](CC(C)C)C(=O)N[C@@H](Cc1c[nH]cn1)C(=O)N[C@@H](CCC(=O)O)C(=O)N[C@@H](CC(C)C)C(=O)N[C@@H](CCC(N)=O)C(=O)N[C@H](C(=O)N[C@@H](Cc1ccc(O)cc1)C(=O)N1CCC[C@H]1C(=O)N[C@@H](CCCNC(=N)N)C(=O)N[C@H](C(=O)N[C@@H](CCC(=O)O)C(=O)N[C@H](C(=O)NCC(=O)N[C@@H](CO)C(=O)NCC(=O)N[C@H](C(=O)N[C@@H](Cc1ccc(O)cc1)C(N)=O)[C@@H](C)O)[C@@H](C)O)[C@@H](C)O)[C@@H](C)O)[C@@H](C)O) [[N-terminal(C18 diacid-gGlu), des1, 4G, 15Q, 21Q, 23Y, 30S, 31G, 32T, 33Y]mimylin] | 0.013 | 0.013
11 | {C16 diacid}-ASELSTAALGRLSAELHELATLPRTETGSGSP-NH2 [[N-terminal(C16 diacid), des1, 30S, 31G]mimylin] | 0.064 | 0.011
12 | {C14 diacid-γGlu}-ASELSTAALGRLSAELHELATLPRTETGSGSP-NH2 [[N-terminal(C14 diacid-gGlu), des1, 30S, 31G]mimylin] | 0.122 | 0.017

Reference: patent US20160272683A1 (Novo Nordisk, published 2016)
